Experimental data: publication PMC4567411 (Nature, 2015)
Each block holds one binder with its values, some of them ahead of it.

T1: His6Sumo-MED25(407-680) (Arabidopsis, UniProt Q7XYY2 407-680)
T1 sequence (looked up): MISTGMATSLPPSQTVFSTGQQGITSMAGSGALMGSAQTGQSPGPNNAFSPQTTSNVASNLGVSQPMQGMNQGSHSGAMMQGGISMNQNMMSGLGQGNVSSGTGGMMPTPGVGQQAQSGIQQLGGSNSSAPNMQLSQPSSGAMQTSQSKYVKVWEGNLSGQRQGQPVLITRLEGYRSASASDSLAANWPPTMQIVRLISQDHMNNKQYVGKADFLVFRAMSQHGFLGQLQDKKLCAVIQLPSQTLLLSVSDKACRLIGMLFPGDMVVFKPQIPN

B1: biotin-MYC3(5-242) (domain or fragment, Arabidopsis, UniProt Q9FIP9 5-242, looked up)
chain: TSSINFLTSDDDASAAAMEAFIGTNHHSSLFPPPPQQPPQPQFNEDTLQQRLQALIESAGENWTYAIFWQISHDFDSSTGDNTVILGWGDGYYKGEEDKEKKKNNTNTAEQEHRKRVIRELNSLISGGIGVSDESNDEEVTDTEWFFLVSMTQSFVNGVGLPGESFLNSRVIWLSGSGALTGSGCERAGQGQIYGLKTMVCIATQNGVVELGSSEVISQSSDLMHKVNNLFNFNNGGG
modifications: biotin (site not stated)
B2: His6Sumo-MED25(540-680) (domain or fragment, Arabidopsis, UniProt Q7XYY2 540-680, looked up)
chain: QLSQPSSGAMQTSQSKYVKVWEGNLSGQRQGQPVLITRLEGYRSASASDSLAANWPPTMQIVRLISQDHMNNKQYVGKADFLVFRAMSQHGFLGQLQDKKLCAVIQLPSQTLLLSVSDKACRLIGMLFPGDMVVFKPQIPN
B3: biotin-MYC3(44-238) (domain or fragment, Arabidopsis, UniProt Q9FIP9 44-238, looked up)
chain: QPQFNEDTLQQRLQALIESAGENWTYAIFWQISHDFDSSTGDNTVILGWGDGYYKGEEDKEKKKNNTNTAEQEHRKRVIRELNSLISGGIGVSDESNDEEVTDTEWFFLVSMTQSFVNGVGLPGESFLNSRVIWLSGSGALTGSGCERAGQGQIYGLKTMVCIATQNGVVELGSSEVISQSSDLMHKVNNLFNFN
modifications: biotin (site not stated)

What was measured:
Assay in all cases: AlphaScreen or HTRF
His6Sumo-MED25(407-680) = target: T1, His6Sumo-MED25(407-680)
biotin-MYC3(44-238) [1] = target: B3
biotin-MYC3(44-238) [2] = target: B3; remark: listed apart in the source
biotin-MYC3(5-242) = target: B1

Binder: B1
binding result (His6Sumo-MED25(407-680)): binds

Binder: B2
binding result (biotin-MYC3(44-238) [1]): binds

Binder: B3
binding result (His6Sumo-MED25(407-680)): binds

IC50 (biotin-MYC3(44-238) [2]): ~420 nM | IC50 (biotin-MYC3(5-242)): ~490 nM
Binder: SVPQARKASLARFLEKRKERLM (peptide, UniProt Q8W4J8 218-239, looked up) [Jas22^JAZ9 peptide]
